Results on one molecule are retold here after patent US20230270892A1, “CHELATOR COMPOSITIONS FOR RADIOMETALS AND METHODS OF USING SAME” (TRIUMF INC., priority 2020, published 2023).

Data set [1] in a line: DTPA challenge (transmetallation) of ^225Ac-crown-αMSH on HPLC. Format: physicochemical. The settings on record: addition of 1000 eq. of DTPA, in 7 hours.
Data set [2] can be described thus: in vivo. More on the design: species or system mice. The settings on record: male, C57BL/6J, mouse, iv, total radioactivity. As to the method: The inventors performed an in vivo evaluation to establish the biodistribution profile of ^225Ac-crown-αMSH in B16F10 tumor bearing mice. The B16F10 cell line (Mus musculus) was obtained commercially from ATCC (CRL-6475), and confirmed pathogen-free using the IMPACT 1 mouse profile (IDEXX BioResearch). The cells were cultured in DMEM media (StemCell Technologies) supplemented with 10% FBS, 100 U/mL penicillin and 100 µg/mL streptomycin at 37° C. in a humidified incubator containing 5% CO2. All animal experiments were conducted according to the guidelines established by Canadian Council on Animal Care and approved by Animal Ethics Committee of the University of British Columbia (UBC). Male C57BL/6J mice were acquired in-house and kept under pathogen-free conditions in the Animal Resource Centre at the BC Cancer Research Centre. The mice were anesthetised by inhalation of 2% isoflurane in 2 L/min oxygen, and 1 x10^6 B16F10 cells were inoculated subcutaneously at right flank. Two to four days after inoculation, the mice were transferred to the UBC Centre of Comparative Medicine, where biodistribution studies were performed once the tumors reached 8-10 mm. At the day of biodistribution mice were injected in the tail vein with ~20 kBq of ^225Accrown-αMSH (range: 10.8-31.6 kBq). After injection mice were allowed to roam freely in their cages, and they were euthanized in groups of 4 at 2 hours post injection by CO2 asphyxiation under isoflurane anesthesia. Blood was collected by cardiac puncture and a full biodistribution performed. Organs were cleaned from blood, weighed and the activity determined using a calibrated gamma counter (Packard Cobra II Auto-gamma counter, Perkin Elmer, Waltham, MA, USA) using three energy windows: 60-120 keV (window A), 180-260 keV (window B), and 400-480 keV (window C). Counting was performed after 6 hours post-sacrifice to ensure equilibrium of the ^225Ac decay chain. Counts were decay corrected from the time of sacrifice and total organ weights were used for the calculation of injected dose per gram of tissue (% ID/g). No differences were noted between the data calculated by three different windows; therefore, the biodistributions are reported using the data acquired using window A. The inventors evaluated biodistribution of ^225Ac-crown-αMSH in mice bearing B16F10 tumors at 2 h post-injection (p.i.) in two separate studies using a total of 5 groups of mice (Table 3). In the first study, three conditions were evaluated: ^225Ac-crown-αMSH prepared the day before (18 h) (A, FIG. 22, right bars), same day (4 h) (B), or same day (4 h) with Sep-Pak purification (C); in the second study the inventors compared 225Ac-crown-αMSH labelled 4 hours before with Sep-Pak purification and with the introduction of 0.1 M L-ascorbate (D, FIG. 22, left bars), or ^225Ac-crown-αMSH prepared 18 hours prior with L-ascorbate (E).

What is called tissue uptake is the percentage of the injected dose found per gram of tissue. Take `CCCC[C@H](NC(=O)CN1CCC(NC(=O)CN2CCOCCN(CC(=O)O)CCN(CC(=O)O)CCOCCN(CC(=O)O)CC2)CC1)C(=O)N[C@H]1CC(=O)NCCCC[C@@H](C(N)=O)NC(=O)[C@H](Cc2c[nH]c3ccccc23)NC(=O)[C@H](CCCNC(=N)N)NC(=O)[C@@H](Cc2ccccc2)NC(=O)[C@H](Cc2c[nH]cn2)NC1=O` [^225Ac-crown-αMSH, metal not drawn]: the “transmetallation on HPLC” value in data set [1] is listed as 64%. The tissue uptake at 2 h is 1.82 %ID/g in data set [2] (20 kBq, Biodistribution: Bone) and 12.7 ± 2.31 %ID/g in data set [2] (tumor uptake). The tissue to tissue ratio at 2 h in data set [2] (tumor to blood ratio) came to 85.4 ± 46.8; in data set [2] (tumor to bone ratio) it was 63.5 ± 13.2; in data set [2] (tumor to kidneys ratio), 2.8 ± 0.98.
